The values that follow come from US20220041739A1 (UNIVERSITY OF ULSTER, published 2022).

The target of the test is T1, IL-1R1 Fc fusion protein.
T1 construct: Used as immunogen and as ELISA coating antigen at 1 ug/ml; also called IL-1R1 immunogen
T1 chain: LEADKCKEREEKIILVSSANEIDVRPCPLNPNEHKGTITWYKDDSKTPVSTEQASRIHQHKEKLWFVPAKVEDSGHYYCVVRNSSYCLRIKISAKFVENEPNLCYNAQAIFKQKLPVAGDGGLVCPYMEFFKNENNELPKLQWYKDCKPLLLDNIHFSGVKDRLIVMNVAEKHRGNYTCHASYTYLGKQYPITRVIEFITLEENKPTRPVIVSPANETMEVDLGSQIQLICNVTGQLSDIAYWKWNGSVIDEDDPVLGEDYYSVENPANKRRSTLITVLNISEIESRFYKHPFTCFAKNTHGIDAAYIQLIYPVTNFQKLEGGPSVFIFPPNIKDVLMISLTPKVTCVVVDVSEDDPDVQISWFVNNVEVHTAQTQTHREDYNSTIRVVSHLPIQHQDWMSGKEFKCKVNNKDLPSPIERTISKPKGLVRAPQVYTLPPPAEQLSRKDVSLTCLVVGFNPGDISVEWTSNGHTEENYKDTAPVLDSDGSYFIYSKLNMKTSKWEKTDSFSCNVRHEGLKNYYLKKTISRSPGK
Briefly: ELISA of hybridoma supernatants on coated IL-1R1, with APO-A1 as negative control. As to the method: The day prior to screening, a Maxi Sorp plate was coated by adding 100 μl/well of 50 mM sodium carbonate coating buffer (pH 9.5) containing the IL-1R1 at 1 μg/ml. A separate coating solution was prepared by diluting APO-A1 in the same coating buffer at 1 μg/ml. […] This plate was incubated overnight at 4° C. in static conditions.
Eleven days after fusion, protoclones were screened by ELISA. 20× Maxi Sorp 96 well plates were coated as described herein using APO-A1 at 1 μg/ml as the negative control for specificity. The coating solution was removed and the plates were blocked as described herein. Samples were prepared by removing 160 μl of supernatant from each well of the ten fusion plates, limiting dilution plates, or 24-well plates and transferring to fresh 96 well culture plates containing 50 μl 1×PBS. After 2 hours of blocking, the blocking solution was removed, and the plates were washed 3× with PBS-T. The samples from each dilution plate were loaded onto the ELISA plates at 100 μl/well by adding 1 row from each dilution plate per 2 rows on the ELISA plates to account for specificity of the coating antigens. Two wells per ELISA were incubated with 100 μl 1×PBS as a negative control. These samples were incubated at 150 rpm for 2 hours at room temperature.
A general note: In an ELISA, binding on a coated surface is turned into a signal by an enzyme label.

B1: Anti-IL-1R1 monoclonal antibody produced from clone F237 5D1-1A8-2A5 (antibody, V domains shown)
VH: QIQLVQSGPELRKPGETVRISCKASGYPFTTAGLQWVQKMSGKGLKWIGWMNTQSEVPKYAEEFKGRIAFSLETAASTAYLQINNLKTEDTATYFCAKSVYFNWRYFDVWGAGTTVTVSS
VL: DIVMTQSPATLSVTPGDRVSLSCRASQSISDYLSWYQQRSHESPRLIIKYASQSISGIPSRFSGSGSGSDFTLSINSVEPEDVGVYYCQHGHSFPLTFGSGTKLELKR
notes: Mouse hybridoma antibody tested as culture supernatant; also called first antibody (to IL-1R1)
Take B1: the binding result is “binds”.
